# Results: article PMC7367873, “Dissecting the sequence determinants for dephosphorylation by the catalytic subunits of phosphatases PP1 and PP2A” (Nature Communications, 2020)
# Columns and labels:
# [1] = system: GFP-14-3-3β and its binding proteins; experiment: GFP-14-3-3β co-IP with LC-MS/MS label-free quantification, untreated versus PP1c-treated; design: species or system human; settings: pairwise comparison PP1 vs untreated
# [2] = system: GFP-14-3-3β; experiment: GFP-14-3-3β co-IP with LC-MS/MS, untreated GFP-14-3-3β versus GFP control (14-3-3 interactome); assay type: binding, human; settings: pairwise comparison untreated vs GFP
"Difference (log2), PP1 vs untreated [1] [log2]",Molecule,"Difference (log2), untreated vs GFP [2] [log2]"
-0.1127,"TMOD3 (protein, UniProt Q9NYL9 1-352, looked up) Tropomodulin-3: MALPFRKDLEKYKDLDEDELLGNLSETELKQLETVLDDLDPENALLPAGFRQKNQTSKSTTGPFDREHLLSYLEKEALEHKDREDYVPYTGEKKGKIFIPKQKPVQTFTEEKVSLDPELEEALTSASDTELCDLAAILGMHNLITNTKFCNIMGSSNGVDQEHFSNVVKGEKILPVFDEPPNPTNVEESLKRTKENDAHLVEVNLNNIKNIPIPTLKDFAKALETNTHVKCFSLAATRSNDPVATAFAEMLKVNKTLKSLNVESNFITGVGILALIDALRDNETLAELKIDNQRQQLGTAVELEMAKMLEENTNILKFGYQFTQQGPRTRAANAITKNNDLVRKRRVEGDHQ",0.4757
-0.1001,"HNRNPA1;HNRNPA1L2 (protein, UniProt P09651 1-372, looked up) Heterogeneous nuclear …: MSKSESPKEPEQLRKLFIGGLSFETTDESLRSHFEQWGTLTDCVVMRDPNTKRSRGFGFVTYATVEEVDAAMNARPHKVDGRVVEPKRAVSREDSQRPGAHLTVKKIFVGGIKEDTEEHHLRDYFEQYGKIEVIEIMTDRGSGKKRGFAFVTFDDHDSVDKIVIQKYHTVNGHNCEVRKALSKQEMASASSSQRGRSGSGNFGGGRGGGFGGNDNFGRGGNFSGRGGFGGSRGGGGYGGSGDGYNGFGNDGGYGGGGPGYSGGSRGYGSGGQGYGNQGSGYGGSGSYDSYNNGGGGGFGGGSGSNFGGGGSYNDFGNYNNQSSNFGPMKGGNFGGRSSGPYGGGGQYFAKPRNQGGYGGSSSSSSYGSGRRF",0.6063
-0.06583,"LIG3 (protein, UniProt P49916 43-1009, looked up) DNA ligase 3: LLHGHPLFLRRKPVLSFQGSHLRSRATYLVFLPGLHVGLCSGPCEMAEQRFCVDYAKRGTAGCKKCKEKIVKGVCRIGKVVPNPFSESGGDMKEWYHIKCMFEKLERARATTKKIEDLTELEGWEELEDNEKEQITQHIADLSSKAAGTPKKKAVVQAKLTTTGQVTSPVKGASFVTSTNPRKFSGFSAKPNNSGEAPSSPTPKRSLSSSKCDPRHKDCLLREFRKLCAMVADNPSYNTKTQIIQDFLRKGSAGDGFHGDVYLTVKLLLPGVIKTVYNLNDKQIVKLFSRIFNCNPDDMARDLEQGDVSETIRVFFEQSKSFPPAAKSLLTIQEVDEFLLRLSKLTKEDEQQQALQDIASRCTANDLKCIIRLIKHDLKMNSGAKHVLDALDPNAYEAFKASRNLQDVVERVLHNAQEVEKEPGQRRALSVQASLMTPVQPMLAEACKSVEYAMKKCPNGMFSEIKYDGERVQVHKNGDHFSYFSRSLKPVLPHKVAHFKDYIPQAFPGGHSMILDSEVLLIDNKTGKPLPFGTLGVHKKAAFQDANVCLFVFDCIYFNDVSLMDRPLCERRKFLHDNMVEIPNRIMFSEMKRVTKALDLADMITRVIQEGLEGLVLKDVKGTYEPGKRHWLKVKKDYLNEGAMADTADLVVLGAFYGQGSKGGMMSIFLMGCYDPGSQKWCTVTKCAGGHDDATLARLQNELDMVKISKDPSKIPSWLKVNKIYYPDFIVPDPKKAAVWEITGAEFSKSEAHTADGISIRFPRCTRIRDDKDWKSATNLPQLKELYQLSKEKADFTVVAGDEGSSTTGGSSEENKGPSGSAVSRKAPSKPSASTKKAEGKLSNSNSKDGNMQTAKPSAMKVGEKLATKSSPVKVGEKRKAADETLCQTKVLLDIFTGVRLYLPPSTPDFSRLRRYFVAFDGDLVQEFDMTSATHVLGSRDKNPAAQQVSPEWIWACIRKRRLVAPC",-0.6994
-0.09631,"EIF2AK2 (protein, UniProt P19525 2-551, looked up) Interferon-induced, …: AGDLSAGFFMEELNTYRQKQGVVLKYQELPNSGPPHDRRFTFQVIIDGREFPEGEGRSKKEAKNAAAKLAVEILNKEKKAVSPLLLTTTNSSEGLSMGNYIGLINRIAQKKRLTVNYEQCASGVHGPEGFHYKCKMGQKEYSIGTGSTKQEAKQLAAKLAYLQILSEETSVKSDYLSSGSFATTCESQSNSLVTSTLASESSSEGDFSADTSEINSNSDSLNSSSLLMNGLRNNQRKAKRSLAPRFDLPDMKETKYTVDKRFGMDFKEIELIGSGGFGQVFKAKHRIDGKTYVIKRVKYNNEKAEREVKALAKLDHVNIVHYNGCWDGFDYDPETSDDSLESSDYDPENSKNSSRSKTKCLFIQMEFCDKGTLEQWIEKRRGEKLDKVLALELFEQITKGVDYIHSKKLIHRDLKPSNIFLVDTKQVKIGDFGLVTSLKNDGKRTRSKGTLRYMSPEQISSQDYGKEVDLYALGLILAELLHVCDTAFETSKFFTDLRDGIISDIFDKKEKTLLQKLLSKKPEDRPNTSEILRTLTVWKKSPEKNERHTC",2.168
-0.08165,"CSNK1A1 (protein, UniProt P48729 2-337, looked up) Casein kinase I isoform alpha: ASSSGSKAEFIVGGKYKLVRKIGSGSFGDIYLAINITNGEEVAVKLESQKARHPQLLYESKLYKILQGGVGIPHIRWYGQEKDYNVLVMDLLGPSLEDLFNFCSRRFTMKTVLMLADQMISRIEYVHTKNFIHRDIKPDNFLMGIGRHCNKLFLIDFGLAKKYRDNRTRQHIPYREDKNLTGTARYASINAHLGIEQSRRDDMESLGYVLMYFNRTSLPWQGLKAATKKQKYEKISEKKMSTPVEVLCKGFPAEFAMYLNYCRGLRFEEAPDYMYLRQLFRILFRTLNHQYDYTFDWTMLKQKAAQQAASSSGQGQQAQTPTGKQTDKTKSNMKGF",0.6201
-0.05274,"PATL1 (protein, UniProt Q86TB9 1-770, looked up) Protein PAT1 homolog 1: MFRYESLEDCPLDEDEDAFQGLGEEDEEIDQFNDDTFGSGAVDDDWQEAHERLAELEEKLPVAVNEQTGNGERDEMDLLGDHEENLAERLSKMVIENELEDPAIMRAVQTRPVLQPQPGSLNSSIWDGSEVLRRIRGPLLAQEMPTVSVLEYALPQRPPQGPEDDRDLSERALPRRSTSPIIGSPPVRAVPIGTPPKQMAVPSFTQQILCPKPVHVRPPMPPRYPAPYGERMSPNQLCSVPNSSLLGHPFPPSVPPVLSPLQRAQLLGGAQLQPGRMSPSQFARVPGFVGSPLAAMNPKLLQGRVGQMLPPAPGFRAFFSAPPSATPPPQQHPPGPGPHLQNLRSQAPMFRPDTTHLHPQHRRLLHQRQQQNRSQHRNLNGAGDRGSHRSSHQDHLRKDPYANLMLQREKDWVSKIQMMQLQSTDPYLDDFYYQNYFEKLEKLSAAEEIQGDGPKKERTKLITPQVAKLEHAYKPVQFEGSLGKLTVSSVNNPRKMIDAVVTSRSEDDETKEKQVRDKRRKTLVIIEKTYSLLLDVEDYERRYLLSLEEERPALMDDRKHKICSMYDNLRGKLPGQERPSDDHFVQIMCIRKGKRMVARILPFLSTEQAADILMTTARNLPFLIKKDAQDEVLPCLLSPFSLLLYHLPSVSITSLLRQLMNLPQSAATPALSNPHLTAVLQNKFGLSLLLILLSRGEDLQSSDPATESTQNNQWTEVMFMATRELLRIPQAALAKPISIPTNLVSLFSRYVDRQKLNLLETKLQLVQGIR",-0.4586
-0.09713,"TRIP13 (protein, UniProt Q15645 1-432, looked up) Pachytene checkpoint protein …: MDEAVGDLKQALPCVAESPTVHVEVHQRGSSTAKKEDINLSVRKLLNRHNIVFGDYTWTEFDEPFLTRNVQSVSIIDTELKVKDSQPIDLSACTVALHIFQLNEDGPSSENLEEETENIIAANHWVLPAAEFHGLWDSLVYDVEVKSHLLDYVMTTLLFSDKNVNSNLITWNRVVLLHGPPGTGKTSLCKALAQKLTIRLSSRYRYGQLIEINSHSLFSKWFSESGKLVTKMFQKIQDLIDDKDALVFVLIDEVESLTAARNACRAGTEPSDAIRVVNAVLTQIDQIKRHSNVVILTTSNITEKIDVAFVDRADIKQYIGPPSAAAIFKIYLSCLEELMKCQIIYPRQQLLTLRELEMIGFIENNVSKLSLLLNDISRKSEGLSGRVLRKLPFLAHALYVQAPTVTIEGFLQALSLAVDKQFEERKKLAAYI",0.9602
-0.1195,"GNB2 (protein, UniProt P62879 2-340, looked up) Guanine nucleotide-binding …: SELEQLRQEAEQLRNQIRDARKACGDSTLTQITAGLDPVGRIQMRTRRTLRGHLAKIYAMHWGTDSRLLVSASQDGKLIIWDSYTTNKVHAIPLRSSWVMTCAYAPSGNFVACGGLDNICSIYSLKTREGNVRVSRELPGHTGYLSCCRFLDDNQIITSSGDTTCALWDIETGQQTVGFAGHSGDVMSLSLAPDGRTFVSGACDASIKLWDVRDSMCRQTFIGHESDINAVAFFPNGYAFTTGSDDATCRLFDLRADQELLMYSHDNIICGITSVAFSRSGRLLLAGYDDFNCNIWDAMKGDRAGVLAGHDNRVSCLGVTDDGMAVATGSWDSFLKIWN",-1.0406
-0.04518,"MYBBP1A (protein, UniProt Q9BQG0 1-1328, looked up) Myb-binding protein 1A: MESRDPAQPMSPGEATQSGARPADRYGLLKHSREFLDFFWDIAKPEQETRLAATEKLLEYLRGRPKGSEMKYALKRLITGLGVGRETARPCYSLALAQLLQSFEDLPLCSILQQIQEKYDLHQVKKAMLRPALFANLFGVLALFQSGRLVKDQEALMKSVKLLQALAQYQNHLQEQPRKALVDILSEVSKATLQEILPEVLKADLNIILSSPEQLELFLLAQQKVPSKLKKLVGSVNLFSDENVPRLVNVLKMAASSVKKDRKLPAIALDLLRLALKEDKFPRFWKEVVEQGLLKMQFWPASYLCFRLLGAALPLLTKEQLHLVMQGDVIRHYGEHVCTAKLPKQFKFAPEMDDYVGTFLEGCQDDPERQLAVLVAFSSVTNQGLPVTPTFWRVVRFLSPPALQGYVAWLRAMFLQPDLDSLVDFSTNNQKKAQDSSLHMPERAVFRLRKWIIFRLVSIVDSLHLEMEEALTEQVARFCLFHSFFVTKKPTSQIPETKHPFSFPLENQAREAVSSAFFSLLQTLSTQFKQAPGQTQGGQPWTYHLVQFADLLLNHSHNVTTVTPFTAQQRQAWDRMLQTLKELEAHSAEARAAAFQHLLLLVGIHLLKSPAESCDLLGDIQTCIRKSLGEKPRRSRTKTIDPQEPPWVEVLVEILLALLAQPSHLMRQVARSVFGHICSHLTPRALQLILDVLNPETSEDENDRVVVTDDSDERRLKGAEDKSEEGEDNRSSESEEESEGEESEEEERDGDVDQGFREQLMTVLQAGKALGGEDSENEEELGDEAMMALDQSLASLFAEQKLRIQARRDEKNKLQKEKALRRDFQIRVLDLVEVLVTKQPENALVLELLEPLLSIIRRSLRSSSSKQEQDLLHKTARIFTHHLCRARRYCHDLGERAGALHAQVERLVQQAGRQPDSPTALYHFNASLYLLRVLKGNTAEGCVHETQEKQKAGTDPSHMPTGPQAASCLDLNLVTRVYSTALSSFLTKRNSPLTVPMFLSLFSRHPVLCQSLLPILVQHITGPVRPRHQACLLLQKTLSMREVRSCFEDPEWKQLMGQVLAKVTENLRVLGEAQTKAQHQQALSSLELLNVLFRTCKHEKLTLDLTVLLGVLQGQQQSLQQGAHSTGSSRLHDLYWQAMKTLGVQRPKLEKKDAKEIPSATQSPISKKRKKKGFLPETKKRKKRKSEDGTPAEDGTPAATGGSQPPSMGRKKRNRTKAKVPAQANGTPTTKSPAPGAPTRSPSTPAKSPKLQKKNQKPSQVNGAPGSPTEPAGQKQHQKALPKKGVLGKSPLSALARKKARLSLVIRSPSLLQSGAKKKAQVRKAGKP",2.289
